Data published in patent US6379959B1, “Metalocarboxypeptidase inhibitors and derived molecules used as antitumor agents” (Universitat Autonoma de Barcelona, priority 1996, dated 2002).
Positions of bridges follow the written chain, without caps; N, C: chain ends. No end group written: not given here.

Columns and labels:
[1] = target: T1, EGF receptors of the Capan-1 cell line (Homo sapiens, UniProt P00533); experiment: Competitive binding with 125I-EGF to EGF receptors
T1 construct: endogenous in cells; host or cells: Capan-1 (human pancreatic adenocarcinoma)
Method: The detailed procedure that was employed is as follows:
1. 1.25×10^5 cells were seed per well in plates of 24 wells which were kept in culture for 48 h in DMEM FBS 10%. Triplicates were put for each concentration of competitor to be tested.
2. 24 h before the test, the full medium of the wells was replaced by 2 mL, per well, of DMEM without fetal serum.
3. The next day, the cells were washed, three times, with cold binding medium.
4. The cells were incubated with 70 μL of binding medium to which the concentrations of the competitor to be tested had been added. […] Afterwards, 40,000 cpm (350 pM) of ^125I-EFG were added. The incubation was done at 4° C. for 5 h.
5. The cells were washed quickly three times with 500 μL of the cold washing solution.
6. They were solubilized through incubation for 30 min at room temperature with the permeabilization solution.
7. The radioactivity in the suspension was determined with a gamma counter. To determine the unspecific binding, the value of unspecific binding was deducted from the total bounded radioactivity.
From the test, the bounded radioactivity for each one of the tested concentrations of unlabeled competitor was determined. […] To determine the percentage, the following formula was applied: [formula]
where B is the amount of specific binding in presence of a specific competitor concentration.
With the aim of determining the kind of binding which is taking place, a pseudo-Hill or Logit-log representation (Pratt, W. B. and Taylor, P. “Principles of Drug Action. The Basis of Pharmacology”. Ed. Churchill Livingstone, N.Y., 1990) was carried out. The data of specific binding percentage are used to calculate the log(P/[100-P]), which is represented versus the logarithm of the competitor concentration.
The resulting slope of the straight line is called pseudo-Hill coefficient.
The fitting has been made using the programme Graphpad Inplot4. A non-linear fitting for competition for two binding sites is made. The logarithm of the competitor concentration has been represented versus the values of Logit-log (FIG. 25).
From the previous fitting, the value of IC50, that is to say, the competitor concentration which inhibits 50% of the specific binding for the two types of binding was determined. Also, the percentage of the two types of binding sites was determined.

[2] = system: human pancreatic adenocarcinoma cell line IBF-CP3; experiment: Proliferation test by recount of the cells number (hemocytometer), IBF-CP3; assay type: cell-based
Method: In this assay and with the aim of determining whether the presence in the culture medium produces some effect on the growth in vitro of the cell lines, the final number of the cells when the control reaches monolayer is determined, in the presence and in the absence of the inhibitor. The calculation is made by direct recount of the number of cells using trypsinization and subsequent recount in a hemocytometer. The detailed method is as follows:
1. In each of the three culture flasks of 25 cm^2, 5×10^5 cells are seed and a total volume of the culture medium is added (DMEM with a 10% of fetal bovine serum or synthetic serum, according to the test) of 5 mL:
A first flask is used as control and no PCI is added to it.
PCI is added to a second flask some hours after the culture has started and once the cells have adhered to the bottom of the flask. This type of test is defined as postadherence test.
PCI is added to a third flask at the same time as the culture has begun, before the cells have had time to adhere to the bottom of the flask, thus constituting the preadherence test.
2. The cells are maintained in an incubator at 37° C., 87% of relative humidity and 10% of CO2. The medium contained in the flasks is changed every 3-4 days. Medium free of PCI is added to the control flask; medium with PCI is added to the other two.
3. When the culture of one of the flasks reaches a state of monolayer (or after a specific number of days), we proceed to count the number of cells in each one of them. Firstly and in order to do that, the cells are trypsinized using the following steps:
Immediately after, the recount of the number of cells is done. To do that, an aliquot of 10 μL is taken and it is placed in an eppendorf tube. 10 μL of a solution of trypan blue dye is added. Then, it is well mixed and two aliquots of 10 μL of the mixture are taken and placed in the two zones of an hemocytometer which is placed in the inverted microscope.
The live cells are observed as being refringent and clear, while the dead ones are observed as opaque and dyed blue, for the staining is only able to penetrate dead cells. The total number of cells of the W zone of the hemocytometer is counted, differentiating between the live and the dead ones. Based on this recount, the total number of cells that was in the initial suspension (which will be the total number of cells that was in the culture) is calculated by multiplying the number obtained by 2×10^4. The viability (in %) is calculated by dividing the number of live cells by the total number of counted cells and multiplying it by 100.
The effect produced by the presence of PCI in the medium is expressed as % of cell growth inhibition, which is calculated according to the formula [formula] […]

[3] = [PCI] nM 1, 350 pM 125I-EGF, 5 h, 4° C.

Substance: PCI: potato carboxypeptidase inhibitor, isoform IIa, obtained by recombinant DNA techniques in E. coli (SEQ ID NO.2) (EQHADPICNKPCKTHDDCSGAWFCQACWNSARTCGPYVG; disulfide 12-27, 18-34, 8-24)
- % Receptors ([1]; High affinity binding site): 99.7%
- Log (P/[100-P]) ([1]; Log [PCI] M −4.33): −0.272
- Log (P/[100-P]) ([1]; Log [PCI] M −4.93): −0.2246
- Log (P/[100-P]) ([1]; Log [PCI] M −5.83): −0.1873
- Log (P/[100-P]) ([1]; Log [PCI] M −6.63): 0,605
- Log (P/[100-P]) ([1]; Log [PCI] M −7.63): 0.713
- Log (P/[100-P]) ([1]; Log [PCI] M −8.63): 1.205
- Log (P/[100-P]) ([1]; Log [PCI] M −9): 1.99
- % Receptors ([1]; Low affinity binding site): 0.3%
- Percentage of specific binding [1, 3]: 99%
- Specific binding (cpm) [1, 3]: 1597 cpm
- Percentage of specific binding ([1]; [PCI] nM 2.32): 94.14%
- Specific binding (cpm) ([1]; [PCI] nM 2.32): 1503.5 cpm
- Percentage of specific binding ([1]; [PCI] nM 23.2): 83.78%
- Specific binding (cpm) ([1]; [PCI] nM 23.2): 1307 cpm
- Percentage of specific binding ([1]; [PCI] nM 232.8): 80.13%
- Specific binding (cpm) ([1]; [PCI] nM 232.8): 1250 cpm
- Percentage of specific binding ([1]; [PCI] nM 2328.2): 39.38%
- Specific binding (cpm) ([1]; [PCI] nM 2328.2): 621.5 cpm
- Percentage of specific binding ([1]; [PCI] nM 11641): 37.35%
- Specific binding (cpm) ([1]; [PCI] nM 11641): 582.6 cpm
- Percentage of specific binding ([1]; [PCI] nM 46566): 34.83%
- Specific binding (cpm) ([1]; [PCI] nM 46566): 543.33 cpm
- binding capacity to the receptor of high affinity, times inferior to that of the EGF ([1]; high affinity receptor): 6 times
- Percentage of Growth Inhibition ([2]; 5 mg PCI/mL, Postadhesion): 23.7 ± 19.3%
- Percentage of Growth Inhibition ([2]; 5 mg PCI/mL, Preadhesion, DMEM+10%BMS until controls confluent): 20.4 ± 14.2%
- Percentage of Growth Inhibition ([2]; 10 mg PCI/mL, Postadhesion): 15.1 ± 8.3%
- Percentage of Growth Inhibition ([2]; 10 mg PCI/mL, Preadhesion): 11.6 ± 8.5%
